According to US20220106398A1 (IGM BIOSCIENCES, published 2022):

Legend:
Test in all cases: ELISA, scFv periplasmic extract on coated His6-GITR
[1] = biological target: T1, human His6-GITR (human, UniProt Q9Y5U5 26-162)
T1 construct: His6-tagged recombinant protein; also called hGITR-His; human GITR-His
T1 sequence: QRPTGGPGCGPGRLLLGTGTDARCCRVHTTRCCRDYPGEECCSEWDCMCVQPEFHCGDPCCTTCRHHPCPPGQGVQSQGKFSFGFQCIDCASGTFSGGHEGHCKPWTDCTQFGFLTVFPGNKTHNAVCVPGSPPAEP
Procedure: (§1) The SuperHuman-2.0 scFv Antibody Library (available from Distributed Bio, South San Francisco, Calif.) was used to perform selection with human, cynomolgus or mouse GITR proteins. Selected phage clones from overnight growth were inoculated into wells in 96 well deep well plates containing 1 mL of medium. scFv expression was induced by addition of IPTG (Teknova) to a final concentration of 1 mM. Plates were grown overnight after induction. To prepare periplasmic extracts (PPE), the plates containing the phage clones were centrifuged at 2500 rpm for 10 min, the supernatant discarded and then pellets treated with 75 μL of cold periplasmic extract buffer with appropriate concentration of protease inhibitors (Complete Mini, EDTA-free -Roche Applied Biosciences—Cat No 1836170). After shaking at room temperature for 10 min, 225 μL of cold ddH2O with added protease inhibitor (1 tablet/50 mL) was added per well and mixed by pipetting up and down. PPE extraction was completed by incubation at room temperature for an additional 1 hr. The plates were then centrifuged at 4000 rpm for 20 minutes and 200 μL of PPE supernatant was collected from each well and transferred to a new plate which was then blocked with equal volume of 4% milk (2% final) to prepare blocked PPE extracts. In the meantime, Maxisorp plates (Nunc 442404) coated with relevant antigen (human, mouse or cynomolgus monkey His6-GITR) at 50 μl/well of 1 μg/mL antigen or 2% BSA in PBS as control were prepared for ELISA analyses. Next, 50 μL of each blocked PPE extract was transferred to the pre-blocked ELISA plates coated with the relevant antigens. After incubation and washing 3× with PBS, 50 μL of anti-V5 tag antibody (tag included in the phage display constructs, Invitrogen Cat No R960-25) at 1:5000 dilution in 2% milk was added and the plates were incubated for 1 hr. […] After further washing 3× with PBST, 50 μl/well of TMB substrate was added and the plates were developed until positive controls were visible. The reaction was stopped with 50 μl/well of 2N H2SO4. Plates were read at 450 nm to determine ELISA signal from bound PPE derived scFv.

[2] = biological target: T2, cynomolgus monkey His6-GITR (cynomolgus monkey)
T2 construct: His6-tagged recombinant protein; also called cGITR-His; cyno GITR-His
T2 chain: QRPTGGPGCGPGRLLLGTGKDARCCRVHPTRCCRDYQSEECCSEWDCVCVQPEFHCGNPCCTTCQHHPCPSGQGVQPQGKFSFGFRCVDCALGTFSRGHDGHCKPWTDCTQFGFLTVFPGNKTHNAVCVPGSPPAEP
Procedure: as §1

[3] = biological target: T3, mouse His6-GITR (mouse, UniProt O35714 20-153)
T3 construct: His6-tagged recombinant protein; also called mGITR-His; mouse GITR-His
T3 sequence: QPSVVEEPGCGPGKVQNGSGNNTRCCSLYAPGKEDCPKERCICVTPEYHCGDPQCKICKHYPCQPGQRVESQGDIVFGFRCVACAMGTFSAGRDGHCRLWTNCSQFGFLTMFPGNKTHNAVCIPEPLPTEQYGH
Procedure: as §1

B1: GITR-Mab-40 scFv (scFv, V domains shown)
VH: EVQLLESGGGLVQPGGSLRLSCAASGFTFRNHWMSWVRQAPGKGLEWVSGISWNSGSIDYADSVKGRFTISRDNSKNTLYLQMNSLRAEDTAVYYCAREEYATFDYWGQGTLVTVSS
VL: not shown
notes: scFv in periplasmic extract, V5 tag
**Q.** B1 was tested. Which hGITR-His/BKG [1] did it give?
**A.** 13.9 fold over background

**Q.** What about the cGITR-His/BKG [2] of the same binder?
**A.** 15.5 fold over background

**Q.** What about the mGITR-His/BKG [3] of the same binder?
**A.** 23.2 fold over background

B2: GITR-Mab-41 scFv (scFv, V domains shown)
VH: QVQLVQSGAEVKKPGASVKVSCKASGGSFSDYAVSWVRQAPGQGLEWMGWMNPNSGNTGYAQKFQGRVTMTRDTSTSTVYMELSSLRSEDTAVYYCARELVRDGYNFALDYWGQGTLVTVSS
VL: DIQMTQSPSSLSASVGDRVTITCRASQDIRNDLAWYQQKPGKAPKLLIYAASSLQSGVPSRFSGSGSGTDFTLTISSLQPEDFATYYCQQSFSTFYTFGQGTKLEIK
notes: as for B1
**Q.** How did the hGITR-His/BKG [1] turn out when B2 was run?
**A.** 9.9 fold over background

**Q.** And the cGITR-His/BKG [2]?
**A.** 10.3 fold over background

**Q.** And the mGITR-His/BKG [3]?
**A.** 10.4 fold over background

B3: GITR-Mab-23 scFv (scFv, V domains shown)
VH: EVQLLESGGGLVQPGGSLRLSCAASGFPFSTYAIHWVRQAPGKGLEWVSAISGSGGSTYYADSVKGRFTISRDNSKNTLYLQMNSLRAEDTAVYYCAGPDWYFDLWGRGTLVTVSS
VL: DIQMTQSPSSLSASVGDRVTITCRASQAISNSLAWYQQKPGKAPKLLIYAASTLQRGVPSRFSGSGSGTDFTLTISSLQPEDFATYYCQQYYSTPYTFGQGTKLEIK
notes: as for B1
**Q.** Which results are given for B3?
**A.** hGITR-His/BKG [1]: 35.6 fold over background; cGITR-His/BKG [2]: 23.2 fold over background; mGITR-His/BKG [3]: 0.9 fold over background

B4: GITR-Mab-44 scFv (scFv, V domains shown)
VH: QVQLVQSGAEVKKPGASVKVSCKASGYTFTSHDIDWVRQAPGQGLEWMGWINPSGDSTSYAQKFQGRVTMTRDTSTSTVYMELSSLRSEDTAVYYCARYYGGNSYAFDIWGQGTMVTVSS
VL: DIQMTQSPSSLSASVGDRVTITCRASESISPWVAWYQQKPGKAPKLLIYAASTLQSGVPSRFSGSGSGTDFTLTISSLQPEDFATYYCQQGTSTPYTFGQGTKLEIK
notes: as for B1
**Q.** B4 was tested. Which hGITR-His/BKG [1] did it give?
**A.** 12.4 fold over background

**Q.** And the cGITR-His/BKG [2]?
**A.** 12.3 fold over background

**Q.** And the mGITR-His/BKG [3]?
**A.** 15.6 fold over background

B5: GITR-Mab-46 scFv (scFv, V domains shown)
VH: QVQLVQSGAEVKKPGASVKVSCKASGGSFSNYAINWVRQAPGQGLEWMGWMNPYSGNTGYAQKFQGRVTMTRDTSTSTVYMELSSLRSEDTAVYYCAREITANYYYGMDVWGQGTKVTVSS
VL: DIQMTQSPSSLSASVGDRVTITCQASQDISNYLNWYQQKPGKAPKLLIYEASVLESGVPSRFSGSGSGTDFTLTISSLQPEDFATYYCQQSYTTQYTFGQGTKVEIK
notes: as for B1
**Q.** What does the source list for B5?
**A.** hGITR-His/BKG [1]: 4 fold over background; cGITR-His/BKG [2]: 5.3 fold over background; mGITR-His/BKG [3]: 6.5 fold over background

B6: GITR-Mab-42 scFv (scFv, V domains shown)
VH: QVQLVQSGAEVKKPGASVKVSCKASGYIFTNYWIQWVRQAPGQGLEWMGWINPHSGATKYAERFQGRVTMTRDTSTSTVYMELSSLRSEDTAVYYCARGLGSAFDIWGQGTMVTVSS
VL: not shown
notes: as for B1
**Q.** B6 was tested. Which hGITR-His/BKG [1] did it give?
**A.** 5.5 fold over background

**Q.** What about the cGITR-His/BKG [2] of the same binder?
**A.** 4.2 fold over background

**Q.** What about the mGITR-His/BKG [3] of the same binder?
**A.** 1 fold over background

B7: GITR-Mab-48 scFv (scFv, V domains shown)
VH: QVQLVQSGAEVKKPGASVKVSCKASGYSFTSHDIDWVRQAPGQGLEWMGWINPNSGGTNYAQKFQGRVTMTRDTSTSTVYMELSSLRSEDTAVYYCARIRGYYGSGSYHDAFDIWGQGTTVTVSS
VL: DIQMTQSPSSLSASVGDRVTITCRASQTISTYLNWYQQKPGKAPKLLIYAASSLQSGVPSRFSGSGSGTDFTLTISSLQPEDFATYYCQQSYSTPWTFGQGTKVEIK
notes: as for B1
**Q.** Which results are given for B7?
**A.** hGITR-His/BKG [1]: 9.4 fold over background; cGITR-His/BKG [2]: 8.9 fold over background; mGITR-His/BKG [3]: 9.5 fold over background

B8: GITR-Mab-47 scFv (scFv, V domains shown)
VH: QVQLVQSGAEVKKPGSSVKVSCKASGGTFSTYAINWVRQAPGQGLEWMGIINPTDGDTSYAQKFQGRVTITADESTSTAYMELSSLRSEDTAVYYCARAAYYYYGMDVWGQGTTVTVSS
VL: not shown
notes: as for B1
**Q.** What does the source list for B8?
**A.** hGITR-His/BKG [1]: 13 fold over background; cGITR-His/BKG [2]: 21 fold over background; mGITR-His/BKG [3]: 24.9 fold over background

B9: GITR-Mab-43 scFv (scFv, V domains shown)
VH: QVQLVQSGAEVKKPGASVKVSCKASGYTFTSHDIDWVRQAPGQGLEWMGWMNPNNGNTVYAQRFQGRVTMTRDTSTSTVYMELSSLRSEDTAVYYCARWKVYSGSYYGGAGYFDLWGRGTLVTVSS
VL: DIQMTQSPSSLSASVGDRVTITCRASQSISSYLNWYQQKPGKAPKLLIYRASHLEGGVPSRFSGSGSGTDFTLTISSLQPEDFATYYCQQADSLPLTFGQGTKVEIK
notes: as for B1
**Q.** Which results are given for B9?
**A.** hGITR-His/BKG [1]: 11.7 fold over background; cGITR-His/BKG [2]: 12 fold over background; mGITR-His/BKG [3]: 14.6 fold over background
